The subject of series [1] is K4 kissing-loop RNA reporter. Nature of the series: apparent KD of K4 kissing-loop reporter; higher = weaker reporter binding. Particulars: Eterna round: R107. As for the experimental part: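 RNA-MaP round R107: designed RNA switches with theophylline, tryptophan, arginine or FMN aptamers are transcribed on-chip within common flanks. They are titrated with a labelled K4 kissing-loop RNA reporter in RNA-MaP buffer (100 mM Tris pH 7.5, 80 mM KCl, 4 mM MgCl2), without ligand or with the indicated ligand. Median apparent KD per design.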

For the next series, the system named is MS2 coat protein. Nature of the series: apparent KD of MS2 coat protein; designed switch direction (-1 OFF switch, 1 ON switch): -1; higher = weaker reporter binding. Summed up: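 Each step of the titration lasted 0.8–1.5 h at the lowest concentration and 10–20 min at the highest. The protein, SNAP-549-labelled MS2 coat protein, went from 0.7 or 1.5 nM doubling to 3 µM over RNA switches transcribed on Illumina chips by stalled E. coli RNA polymerase. Normalised cluster fluorescence was curve-fitted, and the per-design median over clusters is given as apparent KD.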

Where [2] appears, read: input ligand: theophylline 20 uM.
The mark [3] stands for this setting: input ligand: tryptophan 2.4 mM.
The mark [4] stands for this setting: input ligand: microRNA oligo, concentration not stated.
The mark [5] stands for this setting: Eterna round: R95, input ligand: microRNA oligo, concentration not stated.
Where [6] appears, read: Eterna round: R95, input ligand: FMN 200 uM.
[7] abbreviates: Eterna round: R95, input ligand: none.
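For apparent KD of K4 kissing-loop reporter in this document: bound reporter read as fluorescence of individual clusters on recovered sequencing chips by microscopy, with normalized cluster intensities fitted with a binding model.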

Regarding “AAAAUUGCGGUCGAAAGAACUUCUUGCAUACGAGGACCGGUACGGCCGCCACUCGAGUCAAGUGAUGUUUGAUAAUCUAUUAUUA [JR_ExcTryptoA_Sub012]”, the “apparent KD of K4 kissing-loop reporter” value in series [1] (input ligand: FMN 200 uM) was 151 nM; in series [1] (input ligand: arginine 13.2 mM), 225 nM; in series [1] (input ligand: none), 215 nM; in series [1] (setting [2]) it was 296 nM; in series [1] (setting [3]), 212 nM.
For the sequence “AAACAUCACUGGGAGUGAUGUUCUCAGUGACGAGGACCGGUACGGCCGCCACUCGCGAGAGAUAUAGUCAAGUAAUGACUGCAUU [Excl Tryptophan A V9]”, the “apparent KD of K4 kissing-loop reporter” value in series [1] (input ligand: FMN 200 uM) amounted to 365 nM; in series [1] (input ligand: arginine 13.2 mM), 309 nM; in series [1] (input ligand: none), 407 nM; in series [1] (setting [2]), 375 nM; in series [1] (setting [3]), 413 nM.
Regarding “UUUUAUAGAGGAUAUGCGUGAAUAUAUAUUCAUGGAAAUUUACAUGAGGAUCACCCAUGUAGAAGGUUGUGUUU [LRO-Excl2-20-mod 090 by JR] (Eterna round: R97, puzzle: Exclusion 2)”, the entries for the “apparent KD of MS2 coat protein” value in the series on MS2 coat protein (input ligand: FMN 200 uM) and with MS2 coat protein (input ligand: none) were 13.3 nM and 11.9 nM, respectively.
As for “UUUUGAAAGUGAGGAUAUGACAUGAGGAUCACCCAUGUAAAGGGAGUUGACUAUAUAGCAAGAUAUCAGAAGGCACAAAUGUUU [JR_ExcNG2_Sub003] (Eterna round: R96, puzzle: Exclusion NG 2)”, the figures for the “apparent KD of MS2 coat protein” value in the series with MS2 coat protein (input ligand: FMN 200 uM), with MS2 coat protein (setting [4]) and in the series with MS2 coat protein (input ligand: none) were 367 nM, 341 nM and 645 nM, respectively.
For “UUUUGACAUGAGGAUCACCCAUGUGAGGAUAUGAUGCGAUCGUCGAAAGACGAUAGCAUCAGAAGGCACAUAUG [Fiskers Ex 1 - 9] (puzzle: Exclusion 1)”, the “apparent KD of MS2 coat protein” value with MS2 coat protein (setting [5]) amounted to 125 nM.
Turning to “UUUUGGCAAGCGAGAUCCGACAUGAGGAUCACCCAUGUGCGGGCCCGAAAAGGGCCCGCGGUUGCUCGUCUUGUGUG [free energy optimized] (Eterna round: R97, puzzle: Sensor, turn-off variant 1)”, the “apparent KD of MS2 coat protein” value in the series on MS2 coat protein (input ligand: FMN 200 uM) came out at 15.7 nM; in the series with MS2 coat protein (input ligand: none) it was 16.9 nM.
On to “UUUUUACGAGGAUAUCGUUUUUUUCACAUGAGGAUCACCCAUGUUGUUUAUGUUUCGUUGCGAGAAGGCGUUUGUU [JR_E5_Sub064] (puzzle: Exclusion 5)”, for which, in the series on MS2 coat protein (setting [5]), the “apparent KD of MS2 coat protein” value turned out to be 24.3 nM.
As to “UUUUUACGAGGAUAUCGUUUUUUUCACAUGAGGAUCACCCAUGUUGUUUAUGUUUCGUUUCGAGAAGGCGUUUGUU [JR_E5_Sub065] (puzzle: Exclusion 5)”, the “apparent KD of MS2 coat protein” value in the series on MS2 coat protein (setting [5]) amounted to 26.1 nM.
Turning to “UUUUUAGUGCUUUUUAAGUACAUGAGGAUCACCCAUGUACUUGUCUGGUGGUCCGGACAAGCUUUUUGCUCGUCUUG [Trying Again] (puzzle: Sensor v3, turn-off variant 1)”, the figures for the “apparent KD of MS2 coat protein” value in the series with MS2 coat protein (setting [6]), in the series with MS2 coat protein (setting [5]) and in the series with MS2 coat protein (setting [7]) were 41.4 nM, 35.9 nM and 48.2 nM, respectively.
“UUUUUAUAUGAAGGAUAUACUUAACAUGAGGAUCACCCAUGUGGUGUUGUGAGUGAGUGAGUUUAGUAGAAGGUCAAUGAUUUU [JMF's solution 10] (Eterna round: R96, puzzle: Exclusion NG 2)”: the results for the “apparent KD of MS2 coat protein” value in the series on MS2 coat protein (input ligand: FMN 200 uM), with MS2 coat protein (setting [4]) and with MS2 coat protein (input ligand: none) were 730 nM, 326 nM and 345 nM, respectively.
As for “UUUUUAUAUGAAGGAUAUACUUAACAUGAGGAUCACCCAUGUGGUGUUGUGAGUGAGUGAGUUUAGUAGAAGGUCAAUUAGUGU [JMF's solution 102] (Eterna round: R96, puzzle: Exclusion NG 2)”, the “apparent KD of MS2 coat protein” value in the series with MS2 coat protein (input ligand: FMN 200 uM) was determined as 998 nM; in the series with MS2 coat protein (setting [4]), 314 nM; in the series on MS2 coat protein (input ligand: none), 476 nM.
Turning to “UUUUUAUAUGAAGGAUAUACUUAACAUGAGGAUCACCCAUGUGGUGUUGUGAGUGAGUGAGUUUAGUAGAAGGUCAAUUCGUUU [JMF's solution 80] (Eterna round: R96, puzzle: Exclusion NG 2)”, the figures for the “apparent KD of MS2 coat protein” value in the series with MS2 coat protein (input ligand: FMN 200 uM), with MS2 coat protein (setting [4]) and with MS2 coat protein (input ligand: none) were 823 nM, 294 nM and 356 nM, respectively.
For the sequence “UUUUUCAUCUAUGGGAGUGACAUGAGGAUCACCCAUGUGUGUCUUGUUUUUUGUUCGUCUAAGACUUUCUGAUCAGU [JR_SV3TOV1_Sub032] (puzzle: Sensor v3, turn-off variant 1)”, the “apparent KD of MS2 coat protein” value was 128 nM with MS2 coat protein (setting [6]), 313 nM in the series on MS2 coat protein (setting [5]) and 160 nM in the series on MS2 coat protein (setting [7]).
In the case of “UUUUUCGAACAAGCUUCGAACAUGAGGAUCACCCAUGUAGGUAGAUUUGAGUAGGUUUGGAAGUAAGCUCGUCUUAU [JR_SV3TOV1_Sub081] (puzzle: Sensor v3, turn-off variant 1)”, the “apparent KD of MS2 coat protein” value with MS2 coat protein (setting [6]) was 416 nM; in the series on MS2 coat protein (setting [5]), 561 nM; with MS2 coat protein (setting [7]) it was 592 nM.
“UUUUUCGAACAAGCUUCGUACAUGAGGAUCACCCAUGUUUUUAGUUUUGUGUUGGUCAGUAUGGAAGUUCGUCUUAU [JR_SV3TOV1_Sub088] (puzzle: Sensor v3, turn-off variant 1)”: the “apparent KD of MS2 coat protein” value in the series with MS2 coat protein (setting [6]) was found to be 239 nM; with MS2 coat protein (setting [5]) it was 356 nM; with MS2 coat protein (setting [7]), 288 nM.
On to “UUUUUGUCAGGAUAUGAGUAGUAGUACUAUUGUUUUAUUAUUUAGAAGGGACAUGAGGAUCACCCAUGUUUCUC [Bring Us a Shrubbery-01] (puzzle: Exclusion 4)”, for which the “apparent KD of MS2 coat protein” value in the series with MS2 coat protein (setting [5]) is 14.4 nM.
Same read-out and setting: the value for “UUUUUGUGAGGAUAUCAGUAGUAAAAAAAUAAAAUUACUACUGAGAAGGCACAUGAGGAUCACCCAUGUUCCUU [salish99_ex4_r3_011] (puzzle: Exclusion 4)” was 14.5 nM; that for “UUUUUGUGAGGAUAUUAGUAGUAAAAAAAUAAAAUUACUACUGAGAAGGCACAUGAGGAUCACCCAUGUUCCUC [salish99_ex4_r3_040] (puzzle: Exclusion 4)” was 34.9 nM; that for “UUUUUGUGAGGAUAUUAGUAGUAAAUAAAUAAAAUUACUACUGAGAAGGCACAUGAGGAUCACCCAUGUUCCUC [salish99_ex4_r3_068] (puzzle: Exclusion 4)” was 33.2 nM.

Source of the values: the supplement of paper PMC9170038.
